Results: PMC8730436

Test system: RplI (ribosomal large subunit protein L9) (Pseudomonas aeruginosa mPAO1)
Experiment: MST

In the case of -24 nt-exsA RNA, the Kd is reported as 529 nM.
